Among the data in the supplement of paper PMC10567573 are protein stability index values, retold here.

± gives the standard deviation.

The series in a line: protein stability index of a GFP-peptide fusion (GPS, HEK-293T) (PSI 1-6); higher = more stable.
Where [1] appears, read: treatment: DMSO, c terminus: a fixed tail appended.
Where [2] appears, read: treatment: MLN4924 1 uM, 8 h, c terminus: a fixed tail appended.
Setting [3] is: treatment: DMSO, c terminus: native.
Setting [4] is: treatment: MLN4924 1 uM, 8 h, c terminus: native.
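Also: 24-mer peptide tiles fused after GFP, lentivirally expressed, FACS-sorted into six equal bins by GFP/DsRed ratio, decoded by Illumina sequencing, PSI is the read-weighted mean bin number.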

Take QKLDAFLQPLSKPLSSQPQAIVTE [MLH1]: the protein stability index runs as follows: under setting [1], 4.17 ± 0.3; under setting [2], 4.21 ± 0.21.

Turning to QKLREESAARVVLTSLLACLPAGP [DUSP5], the protein stability index by setting is: under setting [1], 2.15 ± 0.26; under setting [2], 2.06 ± 0.13.

Consider QKQRLREILEQQQQERNDTNFHGV [ZNF277], for which the protein stability index reads like this: under setting [1], 4.53 ± 0.3; under setting [2], 4.59 ± 0.23.

QLAQLRCEMEQQSQEYQILLDVKT [KRT16]: the protein stability index is, setting by setting: under setting [1], 3.34 ± 0.076; under setting [2], 3.55 ± 0.28.

Take QLKWASWELHSLRHCDDDGRTENG [ZNF24]: the protein stability index by setting is: under setting [1], 3.83 ± 0.31; under setting [2], 4.04 ± 0.21.

For QLLKNNEKLITWLNKELNENQLVR [SASS6], the protein stability index turned out to be 1.88 ± 0.62 under setting [1] and 2.08 ± 0.38 under setting [2].

Take QLSPNLDLDPLELIALANRFCLPH [RHOBTB1]: the protein stability index runs as follows: under setting [1], 2.27 ± 0.11; under setting [2], 2.44 ± 0.11.

As for QLVEMTGLSPRVIRVWFQNKRCKD [ISL2], the protein stability index amounted to 2.47 ± 0.4 under setting [1] and 2.95 ± 0.43 under setting [2].

Take QNPAGELEGFQAQGHPPSLFPPKA [ATE1]: the protein stability index under setting [1] is 4.66 ± 0.075 and the protein stability index under setting [2] was 4.82 ± 0.17.

Consider QPKQLIVDDLKGSLKEDLTQHKFI [SPRY1], for which the protein stability index is, setting by setting: under setting [1], 4.14 ± 0.13; under setting [2], 4.2 ± 0.22.

On to QPRDEEEAELELLRQFDLAWQYGP [POLD4], for which the protein stability index runs as follows: under setting [1], 4.87 ± 0.34; under setting [2], 4.54 ± 0.27.

QPVDAIKLNLPDYHKIIKNPMDMG [BRD3] came in with a protein stability index under setting [1] of 3.12 ± 0.35 and a protein stability index under setting [2] of 2.92 ± 0.23.

With QQKEEEEEMAVVPQGLFRGGKSGE [CHGA], the protein stability index worked out at 5.52 ± 0.28 under setting [1] and 5.63 ± 0.12 under setting [2].

Take QRKLKPPIVPKIAGDGDTSNFETY [PRKX]: the protein stability index reads like this: under setting [1], 4.38 ± 0.16; under setting [2], 4.47 ± 0.12.

As for QSAYDVADMLKQYFRDLPEPLMTN [DLC1], the protein stability index is, setting by setting: under setting [1], 2.67 ± 0.32; under setting [2], 2.72 ± 0.33.

Regarding QSHDDLSNATATPSVRKKAGSFSR [C2CD2L], the protein stability index by setting is: under setting [1], 4.75 ± 0.31; under setting [2], 4.67 ± 0.2.

Turning to QSLLGYTPEELHAMLDVKPDADE [ETS1], the protein stability index reads like this: under setting [3], 5.2 ± 0.36; under setting [4], 5.18 ± 0.32.

As to QSRRTALATSPITVGDLGIVRRRS [YJU2B], the protein stability index was found to be 4.27 ± 0.16 under setting [1] and 4.36 ± 0.25 under setting [2].

On to QSSCSGPTHTPRPADFSLGSLPGP [VENTX], for which the protein stability index under setting [1] stood at 3.83 ± 0.13 and the protein stability index under setting [2] came to 3.89 ± 0.36.

Turning to QTRNGLGKDHEILRRRIENGAKEL [FUT8], the protein stability index was 4.34 ± 0.33 under setting [1] and 4.33 ± 0.1 under setting [2].

For QVDSLRPASFPTWGCDLGVVTRVV [BRF1], the protein stability index was found to be 2.66 ± 0.11 under setting [1] and 2.5 ± 0.18 under setting [2].

QVLDEVIPIHGKGNFPTMEVKPKD [TENT5D] displayed a protein stability index under setting [1] of 4.61 ± 0.18 and a protein stability index under setting [2] of 4.6 ± 0.24.

QVQQVEVEATVKPELTAALRDIRA [PRPH]: the protein stability index under setting [1] was found to be 4.02 ± 0.31 and the protein stability index under setting [2] was 4.32 ± 0.18.

As for QYLAERYKVNTPMLQSFINYCLLF [SLC35F2], the protein stability index runs as follows: under setting [1], 2.58 ± 0.6; under setting [2], 2.64 ± 0.53.

For the sequence QYLALPERAELAASLGLTQTQVKI [DLX1], the protein stability index turned out to be 2.95 ± 0.33 under setting [1] and 3.03 ± 0.22 under setting [2].

On to RADSFKVSYQLADGGEPQSVQVDG [TNXB], for which the protein stability index was 4.89 ± 0.15 under setting [1] and 5.01 ± 0.22 under setting [2].

With RAEGTDIPTVKPLKPRPEPPKKPS [ZC2HC1A], the protein stability index runs as follows: under setting [1], 5.38 ± 0.18; under setting [2], 5.4 ± 0.27.

For RAPHKESTLPRSGSSGGQQPSGMK [CHCHD6], the protein stability index under setting [1] was determined as 4.96 ± 0.58 and the protein stability index under setting [2] stood at 5.05 ± 0.46.

Consider RAYDLLRAASENSQDALRVVSTSG [IKZF1], for which the protein stability index reads like this: under setting [1], 2.62 ± 0.37; under setting [2], 2.84 ± 0.31.

With RAYFMSDTREEKRFLGEGHHRVQE [CHGB], the protein stability index by setting is: under setting [1], 3.87 ± 0.28; under setting [2], 3.89 ± 0.06.

With RDAIEALCRRLNTLNKCAVMKLEI [DLC1], the protein stability index was 2.13 ± 0.49 under setting [1] and 2.54 ± 0.17 under setting [2].

In the case of RDHVETELLKEAELIRNIQELLKR [TEKT4], the protein stability index under setting [1] worked out at 2.74 ± 0.16 and the protein stability index under setting [2] was 3.01 ± 0.36.

RDLKPENILVTSGGTVKLADFGLA [CDK4]: the protein stability index runs as follows: under setting [1], 3.31 ± 0.44; under setting [2], 3.33 ± 0.27.

RDRFKSFQRRNMIEPRERAKFKRK [NOP53]: the protein stability index runs as follows: under setting [1], 4.11 ± 0.47; under setting [2], 4.54 ± 0.35.

The sequence RDSLSHLVPALRLPGRKLVSSAVS [INTS4] returned a protein stability index under setting [1] of 3.04 ± 0.12 and a protein stability index under setting [2] of 3.21 ± 0.24.

For RDYVRLFGIKCAKCQVGFSSSDLV [ISL2], the protein stability index by setting is: under setting [1], 2.51 ± 0.52; under setting [2], 2.25 ± 0.23.

As for REEEERERLQKEEEKRRREEEERL [ACBD3], the protein stability index stood at 5.5 ± 0.35 under setting [1] and 5.74 ± 0.21 under setting [2].

REKPFKCQECGKTFRVSSDLIKHQ [ZNF75A]: the protein stability index reads like this: under setting [1], 4.73 ± 0.19; under setting [2], 4.72 ± 0.32.

For RFLVGMMNGGMSLVAFVLLNECVG [SLC22A15], the protein stability index by setting is: under setting [1], 3.25 ± 0.35; under setting [2], 2.9 ± 0.38.

For the sequence RGPLNSDRSDYFAAWGARVFSFGK [TRIM43], the protein stability index runs as follows: under setting [1], 2.79 ± 0.22; under setting [2], 2.76 ± 0.22.

As for RGREAGPPQPMVPLAVENQAGGEG [PBXIP1], the protein stability index runs as follows: under setting [1], 5.27 ± 0.38; under setting [2], 5.25 ± 0.16.

With RIASRAIDNAADLLIFGKELSAIG [SNX8], the protein stability index under setting [1] was 2.34 ± 0.28 and the protein stability index under setting [2] came out at 2.44 ± 0.38.

Consider RIRSYLREVSSYPSTVGAEAQEEF [DFFB], for which the protein stability index is, setting by setting: under setting [1], 3.33 ± 0.16; under setting [2], 3.58 ± 0.29.

In the case of RITKDNRRHCQACRLKRCVDIGMM [VDR], the protein stability index by setting is: under setting [1], 2.42 ± 0.36; under setting [2], 2.68 ± 0.29.

For RLAELLLLETDAGPAASEGAEQPP [GADD45A], the protein stability index was determined as 3.26 ± 0.22 under setting [1] and 3.6 ± 0.56 under setting [2].

The sequence RLASYLDKVRALEEANADLEVKIH [KRT15] came in with a protein stability index under setting [1] of 2.33 ± 0.15 and a protein stability index under setting [2] of 2.67 ± 0.22.

With RLGQRQPPPSEPTQGPEIVPRGAG [DNAJC4], the protein stability index amounted to 4.83 ± 0.15 under setting [1] and 4.84 ± 0.12 under setting [2].

On to RLNAYRGYCSNQLAAKALLDQKKQ [NET1], for which the protein stability index is 3.25 ± 0.25 under setting [1] and 3.25 ± 0.26 under setting [2].

In turn, RLVNEYVELVNAACNFEPHESFFS [ZER1] yielded a protein stability index under setting [1] of 2.34 ± 0.4 and a protein stability index under setting [2] of 2.1 ± 0.48.

Regarding RMLFWACSTNKPEGYRVSQALREN [FAF2], the protein stability index was 2.27 ± 0.16 under setting [1] and 2.46 ± 0.18 under setting [2].

Take RPGATAVPTPLTNVQILLPVGEPV [FCHO1]: the protein stability index came out at 3.4 ± 0.26 under setting [1] and 3.33 ± 0.2 under setting [2].

Take RPGPSASAASSAAAGEPLECPTCG [RNF208]: the protein stability index amounted to 5.3 ± 0.2 under setting [1] and 5.3 ± 0.28 under setting [2].

In the case of RPHGIFGPRDPQLVPILIEAARNG [NSDHL], the protein stability index runs as follows: under setting [1], 2.91 ± 0.34; under setting [2], 3.04 ± 0.24.

RPHVHKQTEKTTRVRTVLNEKQLH [ISL2]: the protein stability index came to 4.21 ± 0.098 under setting [1] and 4.39 ± 0.24 under setting [2].

For RPPFETTNLKETYRCIREARYTMP [PLK2], the protein stability index under setting [1] turned out to be 2.72 ± 0.47 and the protein stability index under setting [2] worked out at 2.31 ± 0.26.

As for RPQSAQSSFPPSPGPSPDVQLATL [AUP1], the protein stability index by setting is: under setting [1], 4.34 ± 0.44; under setting [2], 4.34 ± 0.47.

Consider RPRRRDGPEHATRLNGTAKGERRR [DVL3], for which the protein stability index by setting is: under setting [1], 5.06 ± 0.38; under setting [2], 5.08 ± 0.42.

RPSFNRTPIPWLSSGEPVDYNVDI [MYOZ1]: the protein stability index is, setting by setting: under setting [1], 3.57 ± 0.5; under setting [2], 3.66 ± 0.39.

Regarding RQGLKYCLPLTFCIHTGLSQYIAV [FBXO3], the protein stability index stood at 3.08 ± 0.45 under setting [1] and 2.87 ± 0.52 under setting [2].

RQKEVDFCISLLRERFMECLMIGR [INTS3]: the protein stability index reads like this: under setting [1], 2.52 ± 0.74; under setting [2], 2.28 ± 0.13.

Sequence RQLLRDFQSRLPYQYLHYALFKAN [P3H4] gave a protein stability index under setting [1] of 2.49 ± 0.29 and a protein stability index under setting [2] of 2.16 ± 0.43.

Take RREVAKTVFCLVVIFALCWFPLHL [EDNRA]: the protein stability index under setting [1] was determined as 2.93 ± 0.19 and the protein stability index under setting [2] came to 2.53 ± 0.27.

Consider RRHLQFWKSHLRNVQRPLLQAPFL [RHOBTB2], for which the protein stability index under setting [1] is 2.29 ± 0.38 and the protein stability index under setting [2] was found to be 2.21 ± 0.3.

Take RRHTSMERYDPNIDQWSMLGDMQT [KLHL12]: the protein stability index came out at 3.86 ± 0.27 under setting [1] and 3.82 ± 0.26 under setting [2].

Consider RRKEEEVQQQKLAEERRRQNLQEE [FAF2], for which the protein stability index runs as follows: under setting [1], 5.56 ± 0.18; under setting [2], 5.45 ± 0.37.

Take RRKPDPPKDENERSTCNVVQDEFL [DLC1]: the protein stability index is 5.27 ± 0.1 under setting [1] and 5.33 ± 0.13 under setting [2].

Consider RRPRRVEAERPHSLIGVIRETVL [FAM189A2], for which the protein stability index by setting is: under setting [3], 3.39 ± 0.12; under setting [4], 3.42 ± 0.22.

RRSPRPDHPGTPPHKTFRKLRLFD [WEE1]: the protein stability index came to 3.4 ± 0.078 under setting [1] and 3.71 ± 0.34 under setting [2].

As for RRTLQGLEIELQSQLSMKAGLENT [KRT13], the protein stability index turned out to be 3.4 ± 0.24 under setting [1] and 3.34 ± 0.37 under setting [2].

In the case of RRVLPCIPSEEWPNPPTLQEAGLS [FAF2], the protein stability index was determined as 3.9 ± 0.38 under setting [1] and 3.79 ± 0.18 under setting [2].

With RSHSREPRAERKCPRIAPADSGRY [ELOA2], the protein stability index came to 4.093 ± 0.032 under setting [1] and 4.25 ± 0.47 under setting [2].

As for RSLLGYDPQILQMLKEEHQIILEN [RAD54B], the protein stability index runs as follows: under setting [1], 2.94 ± 0.19; under setting [2], 3.11 ± 0.21.
